Substitutions are numbered along the chain they refer to.
B1: Maf1-id (S. cerevisiae Maf1 lacking the internal non-conserved region, Δ64-194) (natural protein, UniProt P41910 1-395, looked up)
chain: MKFIDELDIERVNQTLNFETNDCKIVGSCDIFTTKAVASDRKLYKTIDQHLDTILQENENYNASSGTATNNVNKRRKSSINERPSNLSLGPFGPINEPSSRKIFAYLIAILNASYPDHDFSSVEPTDFVKTSLKTFISKFENTLYSLGRQPEEWVWEVINSHMTLSDCVLFQYSPSNSFLEDEPGYLWNLIGFLYNRKRKRVAYLYLICSRLNSSTGEVEDALAKKPQGKLIIDDGSNEYEGEYDFTYDENVIDDKSDQEESLQ
B2: His-tagged C34 1-156 (the two N-terminal WH domains of C34) (domain or fragment, S. cerevisiae, UniProt P32910 1-156, looked up)
chain: MSGMIENGLQLSDNAKTLHSQMMSKGIGALFTQQELQKQMGIGSLTDLMSIVQELLDKNLIKLVKQNDELKFQGVLESEAQKKATMSAEEALVYSYIEASGREGIWSKTIKARTNLHQHVVLKCLKSLESQRYVKSVKSVKFPTRKIYMLYSLQPS

Key:
[1] = molecular target: T1, C160, subunit of S. cerevisiae RNA polymerase III (S. cerevisiae, UniProt P04051 1-1460); assay: cryo-EM structure
T1 sequence: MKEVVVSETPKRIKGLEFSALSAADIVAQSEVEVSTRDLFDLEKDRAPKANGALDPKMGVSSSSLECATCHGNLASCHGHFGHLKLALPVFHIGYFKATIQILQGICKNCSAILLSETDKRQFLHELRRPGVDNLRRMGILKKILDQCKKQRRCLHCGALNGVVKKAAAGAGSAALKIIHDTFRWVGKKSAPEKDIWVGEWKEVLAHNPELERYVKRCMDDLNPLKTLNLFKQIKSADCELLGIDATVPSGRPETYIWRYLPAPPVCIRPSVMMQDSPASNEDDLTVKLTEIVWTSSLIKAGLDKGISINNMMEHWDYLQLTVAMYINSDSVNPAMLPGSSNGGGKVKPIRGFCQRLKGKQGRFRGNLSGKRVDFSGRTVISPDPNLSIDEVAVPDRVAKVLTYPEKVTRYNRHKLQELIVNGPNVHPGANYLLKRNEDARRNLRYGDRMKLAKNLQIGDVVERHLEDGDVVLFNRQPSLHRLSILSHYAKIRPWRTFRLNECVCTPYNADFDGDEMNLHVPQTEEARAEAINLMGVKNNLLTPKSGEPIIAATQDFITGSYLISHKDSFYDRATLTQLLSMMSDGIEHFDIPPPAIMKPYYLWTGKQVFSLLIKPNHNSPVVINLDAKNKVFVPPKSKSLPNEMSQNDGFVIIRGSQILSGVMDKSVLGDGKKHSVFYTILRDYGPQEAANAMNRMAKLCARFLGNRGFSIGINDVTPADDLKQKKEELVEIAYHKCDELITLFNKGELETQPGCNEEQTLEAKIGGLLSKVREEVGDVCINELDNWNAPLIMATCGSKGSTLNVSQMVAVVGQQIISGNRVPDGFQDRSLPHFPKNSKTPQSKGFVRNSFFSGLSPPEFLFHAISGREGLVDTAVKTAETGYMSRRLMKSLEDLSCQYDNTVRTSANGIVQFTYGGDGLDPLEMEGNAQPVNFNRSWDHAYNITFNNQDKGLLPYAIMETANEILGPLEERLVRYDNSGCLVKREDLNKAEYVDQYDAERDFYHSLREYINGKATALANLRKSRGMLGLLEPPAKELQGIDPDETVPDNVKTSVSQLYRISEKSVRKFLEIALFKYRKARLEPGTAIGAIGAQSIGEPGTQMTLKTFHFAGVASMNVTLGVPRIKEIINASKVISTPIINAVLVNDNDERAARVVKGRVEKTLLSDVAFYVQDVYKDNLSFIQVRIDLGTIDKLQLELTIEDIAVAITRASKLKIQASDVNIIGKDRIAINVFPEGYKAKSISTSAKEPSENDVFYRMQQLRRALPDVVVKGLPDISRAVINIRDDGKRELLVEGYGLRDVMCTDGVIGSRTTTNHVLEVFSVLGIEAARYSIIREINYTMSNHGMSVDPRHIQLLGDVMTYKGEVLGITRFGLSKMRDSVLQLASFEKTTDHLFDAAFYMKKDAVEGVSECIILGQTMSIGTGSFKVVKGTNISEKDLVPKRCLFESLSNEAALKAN

[2] = molecular target: T2, C34, subunit of S. cerevisiae RNA polymerase III (S. cerevisiae, UniProt P32910 1-317); assay: cryo-EM structure
T2 sequence: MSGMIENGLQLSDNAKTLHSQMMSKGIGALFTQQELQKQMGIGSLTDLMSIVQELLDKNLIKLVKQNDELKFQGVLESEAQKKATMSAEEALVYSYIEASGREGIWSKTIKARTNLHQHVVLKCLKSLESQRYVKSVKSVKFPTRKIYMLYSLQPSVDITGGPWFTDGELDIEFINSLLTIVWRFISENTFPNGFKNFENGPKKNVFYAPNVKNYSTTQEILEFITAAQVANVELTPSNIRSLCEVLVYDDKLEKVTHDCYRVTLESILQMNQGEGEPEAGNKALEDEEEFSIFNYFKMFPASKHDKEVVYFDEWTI

[3] = molecular target: B1; assay: pull-down
Maf1-id L318S/W319S = molecular target: T3, Maf1-id L318S/W319S (S. cerevisiae, UniProt P41910 1-395, Δ64-194 | L318S | W319S); assay: pull-down
T3 sequence (looked up): B1 chain with L187S, W188S

Maf1-id T33E/T34E = molecular target: T4, Maf1-id T33E/T34E (S. cerevisiae, UniProt P41910 1-395, Δ64-194 | T33E | T34E); assay: pull-down
T4 sequence (looked up): B1 chain with T33E, T34E

Maf1-id D248A/D250A = molecular target: T5, Maf1-id D248A/D250A (S. cerevisiae, UniProt P41910 1-395, Δ64-194 | D248A | D250A); assay: pull-down
T5 sequence (looked up): B1 chain with D117A, D119A

Measured: binding result

B1
binds: [1] | [2]

B2
binds: [3] | Maf1-id L318S/W319S | Maf1-id T33E/T34E | Maf1-id D248A/D250A

From publication PMC7104376 (Nature structural & molecular biology, 2020)
